# Laboratory results: the supplement of paper PMC9112550, “Optimization of the antimicrobial peptide Bac7 by deep mutational scanning” (BMC Biology, 2022)
# Test system: Escherichia coli TOP10
# Test: shrunken log2 fold change of peptide-encoding DNA abundance (4.5 h post-induction vs induction); higher = less antimicrobial activity (less host growth inhibition)
# Details: time post-induction: 4.5 h; library: site-saturation at positions 5, 18, 19, 20
# 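Further: peptides expressed intracellularly from a pBAD plasmid library in pooled LB shake-flask culture, induced with 0.3% L-arabinose, DNA abundance read by NGS, three biological replicates, DESeq2 with apeglm shrinkage.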
row,Sequence,shrunken log2 fold change
1,RRIRSRPPRLPRPRPRPTQWPRP,0.354
2,RRIRNRPPRLPRPRPRPEAFPRP,0.0792
3,RRIRVRPPRLPRPRPRPLPTPRP,0.184
4,RRIRYRPPRLPRPRPRPPVMPRP,-0.355
5,RRIRGRPPRLPRPRPRPWHPPRP,0.49
6,RRIRKRPPRLPRPRPRPNEKPRP,0.218
7,RRIRDRPPRLPRPRPRPWIYPRP,-0.304
8,RRIRWRPPRLPRPRPRPGHCPRP,-0.101
9,RRIRSRPPRLPRPRPRPAYWPRP,0.259
10,RRIRQRPPRLPRPRPRPMGAPRP,0.132
11,RRIRERPPRLPRPRPRPGHSPRP,-0.134
12,RRIRMRPPRLPRPRPRPWGFPRP,0.0809
13,RRIRTRPPRLPRPRPRPAWCPRP,0.0035
14,RRIRYRPPRLPRPRPRPRNMPRP,-0.56
15,RRIRERPPRLPRPRPRPVENPRP,-0.0218
16,RRIRHRPPRLPRPRPRPPYQPRP,-0.028
17,RRIRHRPPRLPRPRPRPLMDPRP,-0.974
18,RRIRPRPPRLPRPRPRPGAGPRP,0.555
19,RRIRFRPPRLPRPRPRPGKNPRP,0.0341
20,RRIRHRPPRLPRPRPRPTPRPRP,0.609
21,RRIRARPPRLPRPRPRPNTWPRP,0.0711
22,RRIRIRPPRLPRPRPRPNQAPRP,-0.0486

row,Sequence,shrunken log2 fold change
1,RRIRGRPPRLPRPRPRPCGEPRP,0.931
2,RRIRWRPPRLPRPRPRPMSRPRP,0.063
3,RRIRFRPPRLPRPRPRPTAWPRP,0.618
4,RRIRTRPPRLPRPRPRPHKSPRP,0.119
5,RRIRWRPPRLPRPRPRPQEPPRP,0.316
6,RRIRQRPPRLPRPRPRPTIHPRP,-0.32
7,RRIRFRPPRLPRPRPRPTMFPRP,-0.322
8,RRIRDRPPRLPRPRPRPSADPRP,0.368
9,RRIRGRPPRLPRPRPRPPSTPRP,0.643
10,RRIRQRPPRLPRPRPRPGNVPRP,0.0829
11,RRIRRRPPRLPRPRPRPHEFPRP,0.0543
12,RRIRKRPPRLPRPRPRPAMTPRP,0.596
13,RRIRWRPPRLPRPRPRPEWDPRP,1.22
14,RRIRYRPPRLPRPRPRPLGCPRP,-0.198
15,RRIRYRPPRLPRPRPRPWRFPRP,-0.00218
16,RRIRQRPPRLPRPRPRPAFQPRP,0.0837
17,RRIRTRPPRLPRPRPRPFMVPRP,-0.291
18,RRIRMRPPRLPRPRPRPTWSPRP,0.66
19,RRIRKRPPRLPRPRPRPQNEPRP,-0.0827
20,RRIRIRPPRLPRPRPRPAQRPRP,0.0422
21,RRIRMRPPRLPRPRPRPEDCPRP,0.0737
22,RRIRSRPPRLPRPRPRPMSLPRP,0.226

row,Sequence,shrunken log2 fold change
1,RRIRRRPPRLPRPRPRPYNDPRP,-0.176
2,RRIRVRPPRLPRPRPRPQYFPRP,-0.19
3,RRIRDRPPRLPRPRPRPYMCPRP,-0.0331
4,RRIRFRPPRLPRPRPRPRTWPRP,0.544
5,RRIRPRPPRLPRPRPRPDMGPRP,-0.407
6,RRIRTRPPRLPRPRPRPELRPRP,0.225
7,RRIRARPPRLPRPRPRPGLWPRP,1.04
8,RRIRLRPPRLPRPRPRPMPQPRP,0.164
9,RRIRMRPPRLPRPRPRPNCWPRP,0.755
10,RRIRNRPPRLPRPRPRPLGVPRP,0.129
11,RRIRWRPPRLPRPRPRPRQRPRP,0.957
12,RRIRVRPPRLPRPRPRPFKMPRP,-0.398
13,RRIRWRPPRLPRPRPRPIDDPRP,-0.152
14,RRIRARPPRLPRPRPRPNGCPRP,-0.0858
15,RRIRMRPPRLPRPRPRPQPYPRP,-0.00544
16,RRIRDRPPRLPRPRPRPAIIPRP,0.0892
17,RRIRSRPPRLPRPRPRPCVTPRP,0.0116
18,RRIRKRPPRLPRPRPRPDMNPRP,0.375
19,RRIRWRPPRLPRPRPRPPFTPRP,0.21
20,RRIRYRPPRLPRPRPRPFWSPRP,-0.363
21,RRIRKRPPRLPRPRPRPAHSPRP,0.0695
22,RRIRHRPPRLPRPRPRPSWSPRP,-0.235

row,Sequence,shrunken log2 fold change
1,RRIRTRPPRLPRPRPRPNTFPRP,-0.668
2,RRIRTRPPRLPRPRPRPFHMPRP,-0.13
3,RRIRTRPPRLPRPRPRPPSHPRP,-0.143
4,RRIRVRPPRLPRPRPRPGVPPRP,0.0752
5,RRIRVRPPRLPRPRPRPVDAPRP,0.485
6,RRIRERPPRLPRPRPRPMLFPRP,-0.0835
7,RRIRWRPPRLPRPRPRPTERPRP,-0.124
8,RRIRPRPPRLPRPRPRPVPEPRP,0.0758
9,RRIRTRPPRLPRPRPRPYEYPRP,0.0353
10,RRIRFRPPRLPRPRPRPWSIPRP,-0.0103
11,RRIRLRPPRLPRPRPRPIVDPRP,-0.103
12,RRIRDRPPRLPRPRPRPPAAPRP,1.13
13,RRIRQRPPRLPRPRPRPIISPRP,-0.189
14,RRIRVRPPRLPRPRPRPTGFPRP,0.0174
15,RRIRGRPPRLPRPRPRPEWTPRP,1.27
16,RRIRSRPPRLPRPRPRPYIVPRP,-0.646
17,RRIRRRPPRLPRPRPRPLNQPRP,0.0755
18,RRIRLRPPRLPRPRPRPHRFPRP,0.0608
19,RRIRHRPPRLPRPRPRPAYWPRP,2.61
20,RRIRYRPPRLPRPRPRPPGPPRP,0.455
21,RRIRNRPPRLPRPRPRPDCVPRP,-0.106
22,RRIRARPPRLPRPRPRPVKKPRP,0.147

row,Sequence,shrunken log2 fold change
1,RRIRQRPPRLPRPRPRPWVPPRP,-0.152
2,RRIRKRPPRLPRPRPRPHETPRP,-0.0327
3,RRIRIRPPRLPRPRPRPMEQPRP,-0.00783
4,RRIRCRPPRLPRPRPRPFVAPRP,-0.159
5,RRIRHRPPRLPRPRPRPILRPRP,-0.178
6,RRIRSRPPRLPRPRPRPCRNPRP,-0.273
7,RRIRFRPPRLPRPRPRPMWWPRP,0.0551
8,RRIRVRPPRLPRPRPRPWRTPRP,0.0312
9,RRIRNRPPRLPRPRPRPDHSPRP,-0.22
10,RRIRNRPPRLPRPRPRPPGCPRP,0.109
11,RRIRTRPPRLPRPRPRPKAQPRP,-0.0875
12,RRIRCRPPRLPRPRPRPGAEPRP,0.239
13,RRIRGRPPRLPRPRPRPVGPPRP,0.762
14,RRIRHRPPRLPRPRPRPHTEPRP,-0.406
15,RRIRARPPRLPRPRPRPNSMPRP,-0.527
16,RRIRDRPPRLPRPRPRPRKWPRP,-0.0062
17,RRIRMRPPRLPRPRPRPCHAPRP,-0.00133
18,RRIRQRPPRLPRPRPRPKIQPRP,-0.0232
19,RRIRMRPPRLPRPRPRPIHWPRP,-0.257
20,RRIRKRPPRLPRPRPRPLATPRP,0.527
21,RRIRKRPPRLPRPRPRPWLAPRP,0.201
